Experimental data from patent publication US10696719B2, “Nucleoside triphosphate transporter and uses thereof” (THE SCRIPPS RESEARCH INSTITUTE, priority 2016, dated 2020).

Tests used:
Assay type in all cases: cell-based
E. coli BL21(DE3) [1] = system: E. coli BL21(DE3)
Protocol: (§1) Unless otherwise stated, liquid bacterial cultures were grown in 2×YT (casein peptone 16 g/L, yeast extract 10 g/L, NaCl 5 g/L) supplemented with potassium phosphate (50 mM, pH 7), referred to hereafter as “media”, and incubated at 37° C. in a 48-well flat bottomed plate (CELLSTAR, Greiner Bio-One) with shaking at 200 rpm. Solid growth media was prepared with 2% agar. Antibiotics were used, as appropriate, at the following concentrations: carbenicillin, 100 μg/mL; streptomycin, 50 μg/mL; kanamycin, 50 μg/mL; zeocin, 50 μg/mL; chloramphenicol, 33 μg/mL for plasmids, 5 μg/mL for chromosomal integrants. All selective agents were purchased commercially. Cell growth, indicated as OD600, was measured using a Perkin Elmer Envision 2103 Multilabel Reader with a 590/20 nm filter.
(§2) Doubling times for strains grown in the dATP uptake assay were calculated by doubling time as (t2−t1)/log2(OD600,2/OD600,1), averaging across three, ˜30 min time intervals roughly corresponding to 30 min prior to dATP uptake and 60 min during dATP uptake.

E. coli C41(DE3) [2] = assay: growth / toxicity of transporter expression
Protocol: as §1, §2

E. coli BL21(DE3) [3] = assay: dATP uptake assay
Protocol: (§3) Radioactive uptake assays were conducted as described in Haferkamp, et al., “Tapping the nucleotide pool of the host: novel nucleotide carrier proteins of Protochlamydia amoebophila,” Mol. Microbiol. 60, 1534-1545 (2006) with the following modifications: C41(DE3) and BL21(DE3) strains carrying plasmid-based transporters and their appropriate empty plasmid controls, as well as BL21(DE3) chromosomal transporter integrants and their appropriate isogenic transporter-less control, were grown overnight with appropriate antibiotics (streptomycin for pCDF plasmids and chloramphenicol for pSC plasmids and integrants) in 500 μL of media. Cultures were diluted to an OD600 of 0.02 in 500 μL of fresh media, grown for 2.5 h, induced with IPTG (0-1 mM, pCDF strains only) or grown (all other strains) for 1 h, and incubated with dATP spiked with [α-^32P]-dATP (final concentration=250 μM (0.5 μCi/mL)) for ˜1 h. […]
(§4) Following incubation with dATP, 200 μL of each culture was collected through a 96-well 0.65 μm glass fiber filter plate (MultiScreen, EMD Millipore) under vacuum and washed with cold potassium phosphate (3×200 μL, 50 mM, pH 7) and cold ddH2O (1×200 μL). […] The resulting image was quantified by densitometric analysis using Image Studio Lite (LI-COR). […]

E. coli C41(DE3) [4] = assay: dATP uptake assay
Protocol: as §3, §4

For “T7 RNAP: T7 RNA polymerase expressed in the E. coli (DE3) host strains”, the toxicity of expression (E. coli BL21(DE3) [1]) was “toxic”.

B1: PtNTT2: nucleoside triphosphate transporter from Phaeodactylum tricornutum, full length, SEQ ID NO: 1 (protein, listed as Phaeodactylum tricornutum)
chain: MRPYPTIALISVFLSAATRISATSSHQASALPVKKGTHVPDSPKLSKLYIMAKTKSVSSSFDPPRGGSTVAPTTPLATGGALRKVRQAVFPIYGNQEVTKFLLIGSIKFFIILALTLTRDTKDTLIVTQCGAEAIAFLKIYGVLPAATAFIALYSKMSNAMGKKMLFYSTCIPFFTFFGLFDVFIYPNAERLHPSLEAVQAILPGGAASGGMAVLAKIATHWTSALFYVMAEIYSSVSVGLLFWQFANDVVNVDQAKRFYPLFAQMSGLAPVLAGQYVVRFASKAVNFEASMHRLTAAVTFAGIMICIFYQLSSSYVERTESAKPAADNEQSIKPKKKKPKMSMVESGKFLASSQYLRLIAMLVLGYGLSINFTEIMWKSLVKKQYPDPLDYQRFMGNFSSAVGLSTCIVIFFGVHVIRLLGWKVGALATPGIMAILALPFFACILLGLDSPARLEIAVIFGTIQSLLSKTSKYALFDPTTQMAYIPLDDESKVKGKAAIDVLGSRIGKSGGSLIQQGLVFVFGNIINAAPVVGVVYYSVLVAWMSAAGRLSGLFQAQTEMDKADKMEAKTNKEK
B1 was tested, and the toxicity of expression (E. coli C41(DE3) [2]) was “toxic”.

B2: PtNTT2(66-575): N-terminally truncated PtNTT2 variant, amino acids 1-65 removed, SEQ ID NO: 4 (protein, listed as Phaeodactylum tricornutum)
chain: MGGSTVAPTTPLATGGALRKVRQAVFPIYGNQEVTKFLLIGSIKFFIILALTLTRDTKDTLIVTQCGAEAIAFLKIYGVLPAATAFIALYSKMSNAMGKKMLFYSTCIPFFTFFGLFDVFIYPNAERLHPSLEAVQAILPGGAASGGMAVLAKIATHWTSALFYVMAEIYSSVSVGLLFWQFANDVVNVDQAKRFYPLFAQMSGLAPVLAGQYVVRFASKAVNFEASMHRLTAAVTFAGIMICIFYQLSSSYVERTESAKPAADNEQSIKPKKKKPKMSMVESGKFLASSQYLRLIAMLVLGYGLSINFTEIMWKSLVKKQYPDPLDYQRFMGNFSSAVGLSTCIVIFFGVHVIRLLGWKVGALATPGIMAILALPFFACILLGLDSPARLEIAVIFGTIQSLLSKTSKYALFDPTTQMAYIPLDDESKVKGKAAIDVLGSRIGKSGGSLIQQGLVFVFGNIINAAPVVGVVYYSVLVAWMSAAGRLSGLFQAQTEMDKADKMEAKTNKEK
In the case of B2, the “uptake of [α-32P]-dATP” value (E. coli BL21(DE3) [3]) is reported as “increased levels”, the “uptake of [α-32P]-dATP” value (E. coli C41(DE3) [4]) is reported as “reduced uptake” and the toxicity of expression (E. coli C41(DE3) [2]) is reported as “lower toxicity relative to the full length PtNTT2”. For the same molecule, the toxicity of expression (E. coli BL21(DE3) [1]) was “little increase in toxicity”.
